Measurements as given in the supplement of paper PMC10065799, “High-throughput profiling of sequence recognition by tyrosine kinases and SH2 domains using bacterial peptide display” (eLife, 2023).

What follows are sequences tested against Hck (UniProt P08631) (assay: phosphorylation enrichment, bacterial display (enrichment ratio); higher = better substrate or ligand; peptides without Tyr show the background).
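Note: 11-residue human phosphosite peptides and single-mutation variants displayed on the E. coli surface, counted by deep sequencing, each peptide's frequency after selection divided by its frequency in the unselected input library; frequency after pTyr selection over input frequency; kinase dosed for 20-30% of maximal phosphorylation in three min.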

Sequence of Hck (P08631 whole entry, looked up): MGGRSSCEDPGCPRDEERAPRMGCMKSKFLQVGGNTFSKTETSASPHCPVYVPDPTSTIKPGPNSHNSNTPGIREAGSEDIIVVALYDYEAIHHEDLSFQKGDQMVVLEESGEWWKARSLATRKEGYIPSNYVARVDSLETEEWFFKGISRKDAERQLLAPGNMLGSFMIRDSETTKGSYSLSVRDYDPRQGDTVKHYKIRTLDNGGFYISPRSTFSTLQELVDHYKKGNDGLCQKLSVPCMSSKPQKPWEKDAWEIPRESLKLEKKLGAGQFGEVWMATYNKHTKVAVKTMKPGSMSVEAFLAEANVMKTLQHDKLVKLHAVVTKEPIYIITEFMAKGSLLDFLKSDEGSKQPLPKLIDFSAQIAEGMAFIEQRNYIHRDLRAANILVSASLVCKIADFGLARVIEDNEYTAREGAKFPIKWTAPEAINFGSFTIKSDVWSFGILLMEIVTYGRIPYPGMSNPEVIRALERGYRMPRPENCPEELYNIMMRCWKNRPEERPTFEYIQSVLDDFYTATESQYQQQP

| Sequence | phosphorylation enrichment |
| --- | --- |
| NFRTTYVNANE [KCNH2_Y475] | 0.558 |
| LEKISYVYMKR [SSX7_Y48] | 1.18 |
| WGLRSYYETSK [MAGED2_Y448] | 0.448 |
| AAILGYCHGEA [XPC_Y669_R671H] | 0.53 |
| LGSNGYKKLLK [SEPSECS_Y334] | 0.635 |
| DASENYFVMDS [TMEM240_Y77_T80M] | 0.457 |
| GGPAGYLRRAS [PKLR_Y38] | 0.458 |
| LYDPDYMKVIL [CYP4A22_Y104] | 0.787 |
| KYVKMYDNHQL [MYO9A_Y203] | 0.489 |
| CTTIHYNYMYN [TP53_Y234_C238Y] | 0.563 |
| AVISVYDLVAF [PSEN1_Y256_V261F] | 7.4 |
| SERNNYSRVAN [CWC22_Y797] | 0.382 |
| NDKLCYEVSSP [CDH13_Y66_R65C] | 0.548 |
| HNELFYEAAEH [VANGL1_Y345_E347A_YF] | 1.51 |
| LFLALYTGLVR [PIGB_Y402_H407R] | 1.59 |
| LRFEVYGGENE [STOX1_Y610_YF] | 0.5 |
| RTEAQYRFIYM [PTPN11_Y511_Q506R] | 0.635 |
| IHYPPYTDWNQ [ALDH3B2_Y365] | 0.655 |
| EWCSPYGLTPR [GRIN3B_Y601_R598C] | 1.04 |
| FVPAAYVKKLD [SPTAN1_Y1020] | 0.445 |
| DGTIVCTGLET [USH2A_Y4487_Y4487C] | 0.438 |
| WKEIEYEVVPD [CPS1_Y634_R638P] | 0.559 |
| ALSDGYWVVSN [TPP1_Y459] | 0.635 |
| VDDQIYFFRKP [PBRM1_Y1289_E1287Q_YF] | 5.8 |
| PFADPYFDFEI [ZC3H18_Y371_YF] | 0.597 |
| GTQCSYLLSRK [UGT3A1_Y123] | 0.392 |
| REVVNYVQKRN [RMI1_Y450] | 0.696 |
| HFVDEYDLTIE [KRAS_Y32_P34L] | 0.749 |
| IIRFNYLLDVL [FGFR4_Y237_S232I_YF] | 0.522 |

What follows are sequences tested against Fes (UniProt P07332) in the same assay as above.
Sequence of Fes (P07332 whole entry, looked up): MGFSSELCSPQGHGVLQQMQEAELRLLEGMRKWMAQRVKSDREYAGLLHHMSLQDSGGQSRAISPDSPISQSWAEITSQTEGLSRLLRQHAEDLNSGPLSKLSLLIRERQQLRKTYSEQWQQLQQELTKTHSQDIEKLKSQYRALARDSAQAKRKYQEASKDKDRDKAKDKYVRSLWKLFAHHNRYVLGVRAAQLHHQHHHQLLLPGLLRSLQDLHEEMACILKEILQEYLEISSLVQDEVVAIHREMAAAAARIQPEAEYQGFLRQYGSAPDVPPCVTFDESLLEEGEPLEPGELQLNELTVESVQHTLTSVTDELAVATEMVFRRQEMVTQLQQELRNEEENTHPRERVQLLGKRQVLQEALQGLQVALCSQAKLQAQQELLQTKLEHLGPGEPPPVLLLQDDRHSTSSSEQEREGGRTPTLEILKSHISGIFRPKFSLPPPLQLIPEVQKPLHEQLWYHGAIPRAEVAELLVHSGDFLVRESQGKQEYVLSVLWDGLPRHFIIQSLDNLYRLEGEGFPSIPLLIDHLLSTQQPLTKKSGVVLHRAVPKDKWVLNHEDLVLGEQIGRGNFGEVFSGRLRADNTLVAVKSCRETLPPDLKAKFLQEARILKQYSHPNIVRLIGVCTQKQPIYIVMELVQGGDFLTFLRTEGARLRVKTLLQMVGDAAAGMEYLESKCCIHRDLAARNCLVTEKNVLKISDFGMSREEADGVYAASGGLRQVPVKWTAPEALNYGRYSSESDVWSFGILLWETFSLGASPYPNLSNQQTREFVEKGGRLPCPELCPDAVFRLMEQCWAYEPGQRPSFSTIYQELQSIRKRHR

| Sequence | phosphorylation enrichment |
| --- | --- |
| NFRTTYVNANE [KCNH2_Y475] | 1.27 |
| LEKISYVYMKR [SSX7_Y48] | 1.75 |
| WGLRSYYETSK [MAGED2_Y448] | 1.12 |
| AAILGYCHGEA [XPC_Y669_R671H] | 1.03 |
| LGSNGYKKLLK [SEPSECS_Y334] | 0.841 |
| DASENYFVMDS [TMEM240_Y77_T80M] | 1.1 |
| GGPAGYLRRAS [PKLR_Y38] | 0.678 |
| LYDPDYMKVIL [CYP4A22_Y104] | 1.54 |
| KYVKMYDNHQL [MYO9A_Y203] | 0.726 |
| CTTIHYNYMYN [TP53_Y234_C238Y] | 1.22 |
| AVISVYDLVAF [PSEN1_Y256_V261F] | 2.23 |
| SERNNYSRVAN [CWC22_Y797] | 0.557 |
| NDKLCYEVSSP [CDH13_Y66_R65C] | 1.53 |
| HNELFYEAAEH [VANGL1_Y345_E347A_YF] | 1.55 |
| LFLALYTGLVR [PIGB_Y402_H407R] | 1.24 |
| LRFEVYGGENE [STOX1_Y610_YF] | 1.55 |
| RTEAQYRFIYM [PTPN11_Y511_Q506R] | 1.72 |
| IHYPPYTDWNQ [ALDH3B2_Y365] | 0.933 |
| EWCSPYGLTPR [GRIN3B_Y601_R598C] | 1.02 |
| FVPAAYVKKLD [SPTAN1_Y1020] | 0.89 |
| DGTIVCTGLET [USH2A_Y4487_Y4487C] | 1.12 |
| WKEIEYEVVPD [CPS1_Y634_R638P] | 1.18 |
| ALSDGYWVVSN [TPP1_Y459] | 1.01 |
| VDDQIYFFRKP [PBRM1_Y1289_E1287Q_YF] | 1.55 |
| PFADPYFDFEI [ZC3H18_Y371_YF] | 1.16 |
| GTQCSYLLSRK [UGT3A1_Y123] | 0.676 |
| REVVNYVQKRN [RMI1_Y450] | 1.08 |
| HFVDEYDLTIE [KRAS_Y32_P34L] | 2.16 |
| IIRFNYLLDVL [FGFR4_Y237_S232I_YF] | 1.31 |

These sequences were tested on c-Abl (mouse) in the same assay as above.

| Sequence | phosphorylation enrichment |
| --- | --- |
| NFRTTYVNANE [KCNH2_Y475] | 0.61 |
| LEKISYVYMKR [SSX7_Y48] | 1.3 |
| WGLRSYYETSK [MAGED2_Y448] | 0.661 |
| AAILGYCHGEA [XPC_Y669_R671H] | 0.7 |
| LGSNGYKKLLK [SEPSECS_Y334] | 0.543 |
| DASENYFVMDS [TMEM240_Y77_T80M] | 0.677 |
| GGPAGYLRRAS [PKLR_Y38] | 0.671 |
| LYDPDYMKVIL [CYP4A22_Y104] | 1.36 |
| KYVKMYDNHQL [MYO9A_Y203] | 0.696 |
| CTTIHYNYMYN [TP53_Y234_C238Y] | 0.684 |
| AVISVYDLVAF [PSEN1_Y256_V261F] | 0.887 |
| SERNNYSRVAN [CWC22_Y797] | 0.51 |
| NDKLCYEVSSP [CDH13_Y66_R65C] | 0.837 |
| HNELFYEAAEH [VANGL1_Y345_E347A_YF] | 1.47 |
| LFLALYTGLVR [PIGB_Y402_H407R] | 0.896 |
| LRFEVYGGENE [STOX1_Y610_YF] | 0.925 |
| RTEAQYRFIYM [PTPN11_Y511_Q506R] | 1.44 |
| IHYPPYTDWNQ [ALDH3B2_Y365] | 0.938 |
| EWCSPYGLTPR [GRIN3B_Y601_R598C] | 0.734 |
| FVPAAYVKKLD [SPTAN1_Y1020] | 0.651 |
| DGTIVCTGLET [USH2A_Y4487_Y4487C] | 0.837 |
| WKEIEYEVVPD [CPS1_Y634_R638P] | 0.639 |
| ALSDGYWVVSN [TPP1_Y459] | 0.71 |
| VDDQIYFFRKP [PBRM1_Y1289_E1287Q_YF] | 3.29 |
| PFADPYFDFEI [ZC3H18_Y371_YF] | 0.811 |
| GTQCSYLLSRK [UGT3A1_Y123] | 0.569 |
| REVVNYVQKRN [RMI1_Y450] | 0.975 |
| HFVDEYDLTIE [KRAS_Y32_P34L] | 1.4 |
| IIRFNYLLDVL [FGFR4_Y237_S232I_YF] | 0.996 |

These sequences were tested against EPHB1 (UniProt P54762) in the same assay as above.
Sequence of EPHB1 (P54762 whole entry, looked up): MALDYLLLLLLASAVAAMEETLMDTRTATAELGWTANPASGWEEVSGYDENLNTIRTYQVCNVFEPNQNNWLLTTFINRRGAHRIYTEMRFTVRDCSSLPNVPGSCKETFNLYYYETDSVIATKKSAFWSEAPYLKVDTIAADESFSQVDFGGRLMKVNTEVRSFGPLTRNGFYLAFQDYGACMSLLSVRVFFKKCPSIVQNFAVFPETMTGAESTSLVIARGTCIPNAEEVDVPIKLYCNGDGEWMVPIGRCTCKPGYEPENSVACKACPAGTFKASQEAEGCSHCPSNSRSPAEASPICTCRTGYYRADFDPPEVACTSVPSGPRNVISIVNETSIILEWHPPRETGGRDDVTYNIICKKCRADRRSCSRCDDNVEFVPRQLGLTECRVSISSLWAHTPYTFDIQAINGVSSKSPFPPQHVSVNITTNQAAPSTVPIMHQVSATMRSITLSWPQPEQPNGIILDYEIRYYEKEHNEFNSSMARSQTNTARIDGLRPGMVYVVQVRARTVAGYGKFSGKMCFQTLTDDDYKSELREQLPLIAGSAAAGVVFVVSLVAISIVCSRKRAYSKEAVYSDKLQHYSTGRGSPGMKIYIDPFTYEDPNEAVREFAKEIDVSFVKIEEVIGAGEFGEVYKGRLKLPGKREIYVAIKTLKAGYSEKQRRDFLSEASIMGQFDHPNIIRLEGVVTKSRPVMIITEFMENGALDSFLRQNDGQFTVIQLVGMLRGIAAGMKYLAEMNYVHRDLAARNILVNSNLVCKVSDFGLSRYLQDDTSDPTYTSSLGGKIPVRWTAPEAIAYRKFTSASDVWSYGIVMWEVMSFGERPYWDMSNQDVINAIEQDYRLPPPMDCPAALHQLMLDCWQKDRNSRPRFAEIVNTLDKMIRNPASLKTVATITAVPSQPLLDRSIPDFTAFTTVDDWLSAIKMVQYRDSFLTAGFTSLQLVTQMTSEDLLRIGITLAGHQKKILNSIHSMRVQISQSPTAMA

| Sequence | phosphorylation enrichment |
| --- | --- |
| NFRTTYVNANE [KCNH2_Y475] | 0.404 |
| LEKISYVYMKR [SSX7_Y48] | 1.23 |
| WGLRSYYETSK [MAGED2_Y448] | 0.754 |
| AAILGYCHGEA [XPC_Y669_R671H] | 0.581 |
| LGSNGYKKLLK [SEPSECS_Y334] | 0.42 |
| DASENYFVMDS [TMEM240_Y77_T80M] | 6.62 |
| GGPAGYLRRAS [PKLR_Y38] | 0.406 |
| LYDPDYMKVIL [CYP4A22_Y104] | 2.9 |
| KYVKMYDNHQL [MYO9A_Y203] | 0.481 |
| CTTIHYNYMYN [TP53_Y234_C238Y] | 0.945 |
| AVISVYDLVAF [PSEN1_Y256_V261F] | 9.68 |
| SERNNYSRVAN [CWC22_Y797] | 0.503 |
| NDKLCYEVSSP [CDH13_Y66_R65C] | 0.677 |
| HNELFYEAAEH [VANGL1_Y345_E347A_YF] | 0.586 |
| LFLALYTGLVR [PIGB_Y402_H407R] | 0.628 |
| LRFEVYGGENE [STOX1_Y610_YF] | 0.56 |
| RTEAQYRFIYM [PTPN11_Y511_Q506R] | 0.724 |
| IHYPPYTDWNQ [ALDH3B2_Y365] | 0.527 |
| EWCSPYGLTPR [GRIN3B_Y601_R598C] | 0.556 |
| FVPAAYVKKLD [SPTAN1_Y1020] | 0.43 |
| DGTIVCTGLET [USH2A_Y4487_Y4487C] | 0.533 |
| WKEIEYEVVPD [CPS1_Y634_R638P] | 0.636 |
| ALSDGYWVVSN [TPP1_Y459] | 0.475 |
| VDDQIYFFRKP [PBRM1_Y1289_E1287Q_YF] | 0.961 |
| PFADPYFDFEI [ZC3H18_Y371_YF] | 0.673 |
| GTQCSYLLSRK [UGT3A1_Y123] | 0.427 |
| REVVNYVQKRN [RMI1_Y450] | 0.622 |
| HFVDEYDLTIE [KRAS_Y32_P34L] | 0.711 |
| IIRFNYLLDVL [FGFR4_Y237_S232I_YF] | 0.688 |
